Test results reported in paper PMC7919418.
Like-named read-outs stand apart in the source and are kept apart here.

Tests used:
[1] = target: T1, SFiNX[wild type] (Panx-Nxf2-Nxt1-Ctp) (Drosophila melanogaster, UniProt Q9W2H9;Q9VV73;Q9V3H8;Q24117 263-541;541-841;1-133;1-89); test: EMSA
[2] = target: T1, SFiNX[wild type] (Panx-Nxf2-Nxt1-Ctp); test: EMSA; remark: listed apart in the source

T1 sequence (Q9W2H9 263-541, chain 1 of 3): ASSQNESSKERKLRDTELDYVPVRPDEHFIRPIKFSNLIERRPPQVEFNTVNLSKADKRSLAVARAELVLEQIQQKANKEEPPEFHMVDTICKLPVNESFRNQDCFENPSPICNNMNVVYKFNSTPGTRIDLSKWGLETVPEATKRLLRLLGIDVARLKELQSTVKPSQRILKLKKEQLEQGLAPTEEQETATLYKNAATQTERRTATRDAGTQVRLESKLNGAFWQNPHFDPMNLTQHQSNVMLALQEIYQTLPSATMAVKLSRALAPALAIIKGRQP
T1 sequence (Q9VV73 541-841, chain 2 of 3): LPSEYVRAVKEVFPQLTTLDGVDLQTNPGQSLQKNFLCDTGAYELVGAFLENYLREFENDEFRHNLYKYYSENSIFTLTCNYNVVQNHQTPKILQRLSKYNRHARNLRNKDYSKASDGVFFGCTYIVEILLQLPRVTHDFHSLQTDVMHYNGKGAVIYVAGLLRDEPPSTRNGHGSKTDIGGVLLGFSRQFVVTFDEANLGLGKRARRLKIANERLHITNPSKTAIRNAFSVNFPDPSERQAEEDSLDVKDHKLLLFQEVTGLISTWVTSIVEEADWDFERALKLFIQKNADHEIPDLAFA
T1 sequence (Q24117 whole entry, chain 4 of 3): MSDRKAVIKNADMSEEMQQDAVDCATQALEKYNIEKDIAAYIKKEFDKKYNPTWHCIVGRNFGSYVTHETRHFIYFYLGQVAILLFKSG

Row | Binder | binding result [1] | binding result [2]
1 | CUCAUCUUGGUCGUACGCGGAAUAGUUUAAACUGU (ssRNA) [35-nt ssRNA] | binds | –
2 | 35-bp dsRNA (dsRNA) RNA 1: CUCAUCUUGGUCGUACGCGGAAUAGUUUAAACUGU RNA 2: ACAGUUUAAACUAUUCCGCGUACGACCAAGAUGAG | – | binds
3 | 25-bp dsDNA (dsDNA) DNA 1: ACGCTCAAGTCAGAGGTGGCGAAAC DNA 2: GTTTCGCCACCTCTGACTTGAGCGT | – | binds
